Experimental data as given in paper PMC4769027.
Values belong to the substance of their own block, whether it stands above or below them.

Assays:
[1] = target: SDALIE Fc (S239D/A330L/I332E IgG1 Fc) (human); experiment: SPR
[2] = target: GASDALIE Fc (G236A/S239D/A330L/I332E IgG1 Fc), expressed as an Fc fragment (human); experiment: SPR
[3] = target: FcγRIIIa F158 variant ectodomain (as used in SPR) (human) (UniProt P08637); experiment: SPR
[4] = target: FcγRIIa H131 variant ectodomain (human) (UniProt P12318); experiment: SPR
[5] = target: FcγRIIb ectodomain (human) (UniProt P31994); experiment: SPR
[6] = target: FcγRIIb (Homo sapiens) (UniProt P31994); experiment: SPR; details: cited from earlier work
[7] = target: FcγRIIIa V158 (Homo sapiens) (UniProt P08637); experiment: SPR; details: cited from earlier work
[8] = target: FcγRIIa H131 (Homo sapiens) (UniProt P12318); experiment: SPR; details: cited from earlier work
[9] = target: FcγRIIa R131 (Homo sapiens) (UniProt P12318); experiment: SPR; details: cited from earlier work
[10] = target: FcγRIIIa F158 (Homo sapiens) (UniProt P08637); experiment: SPR; details: cited from earlier work
[11] = target: FcγRIIIa F158 ECD (Homo sapiens) (UniProt P08637); experiment: SPR; details: cited from earlier work
[12] = target: FcγRIIb ECD (Homo sapiens) (UniProt P31994); experiment: SPR; details: cited from earlier work
[13] = target: FcγRIIa R131 ECD (Homo sapiens) (UniProt P12318); experiment: SPR; details: cited from earlier work
[14] = target: FcγRIIIa V158 ECD (Homo sapiens) (UniProt P08637); experiment: SPR; details: cited from earlier work
[15] = target: FcγRIIa H131 ECD (Homo sapiens) (UniProt P12318); experiment: SPR; details: cited from earlier work
[16] = target: FcγRIIIa V158 ECD (Homo sapiens) (UniProt P08637); experiment: Competition; details: cited from earlier work

Substance: IgG1 Fc Fc (from UniProt P01857)
Kd [6]: 2520 nM
Kd [7]: 432 nM
Kd [8]: 1380 nM
Kd [9]: 1550 nM
Kd [10]: 2950 nM

Substance: SDALIE Fc (S239D/A330L/I332E IgG1 Fc) (domain or fragment)
Kd [3]: 201 nM
Kd [4]: 1490 nM
Kd [5]: 2190 nM

Substance: wtFc (IgG1) Fc (from UniProt P01857)
Kd [11]: 2950 nM
Kd [12]: 2520 nM
Kd [13]: 1550 nM
Kd [14]: 432 nM
Kd [15]: 1380 nM
Kd [16]: 252 nM

The next lines start with the values.

fold improved affinity compared with wtFc [1]: 318 fold
fold improved affinity compared with wtFc [2]: 431 fold
Substance: FcγRIIIa F158 variant ectodomain (as used in SPR) (from UniProt P08637 17-218) (receptor)

fold improved affinity compared with wtFc [1]: 2 fold
fold improved affinity compared with wtFc [2]: 17 fold
fold tighter binding than SDALIE Fc [2]: 7 fold
Substance: FcγRIIa H131 variant ectodomain (from UniProt P12318 34-211) (receptor)

fold improved affinity compared with wtFc [2]: 6 fold
Substance: FcγRIIb ectodomain (from UniProt P31994 43-217) (receptor)

Kd [3]: 213 nM
Kd [4]: 1580 nM
Kd [5]: 3880 nM
Substance: GASDALIE Fc (G236A/S239D/A330L/I332E IgG1 Fc), expressed as an Fc fragment (domain or fragment)

Kd [3]: 4450 nM
Substance: wild-type IgG1 Fc (from UniProt P01857 108-328) (domain or fragment)
